Experimental data reported in the supplement of paper PMC7125110.
± gives the standard error. For some assays here: Fewer inactive variants are shown than the library holds.

B1: glmS ribozyme (parent)
chain: AUAAAAGCGCCAGAACUACAGAAAUGUAGUUGACGAGGAGGAGGUUUAUCGAAUUUUCGGCGGAUGCCUCCAAA

Assays:
Conditions in all cases: with glucosamine-6-phosphate
[1] = variants of: B1; experiment: kcat; higher = faster cleavage; RNA array
Procedure, shortened: (§1)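 E. coli RNA polymerase transcribed barcoded ribozyme variants in situ on sequenced MiSeq chips, which were tracked via a hybridised Cy3 probe at 37 °C. Tiles were imaged over ~14 h after glucosamine-6-phosphate (40 μM to 10 mM) in HEPES/KCl/Mg(OAc)2 buffer was flowed in. Normalised per-tile medians were fit to one- or two-exponential decays for kobs, and kcat and KM came from weighted Michaelis–Menten fits.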

[2] = variants of: B1; experiment: self-cleavage kobs at 160 uM GlcN6P; higher = faster cleavage; RNA array
Procedure, shortened: as §1

[3] = variants of: B1; experiment: KM; higher = weaker cofactor use; RNA array
Procedure, shortened: as §1

[4] = variants of: B1; experiment: self-cleavage kobs at 40 uM GlcN6P; higher = faster cleavage; RNA array
Procedure, shortened: as §1

[5] = variants of: B1; experiment: self-cleavage kobs at 640 uM GlcN6P; higher = faster cleavage; RNA array
Procedure, shortened: as §1

[6] = variants of: B1; experiment: self-cleavage kobs at 2500 uM GlcN6P; higher = faster cleavage; RNA array
Procedure, shortened: as §1

[7] = variants of: B1; experiment: self-cleavage kobs at 10000 uM GlcN6P; higher = faster cleavage; RNA array
Procedure, shortened: as §1

Row | Variant | kcat [1] | self-cleavage kobs at 160 uM GlcN6P [2] | KM [3] | self-cleavage kobs at 40 uM GlcN6P [4] | self-cleavage kobs at 640 uM GlcN6P [5] | self-cleavage kobs at 2500 uM GlcN6P [6] | self-cleavage kobs at 10000 uM GlcN6P [7]
1 | U30A U45A C50U | < 1e-05 s⁻¹ | < 1e-05 s⁻¹ | – | – | – | – | –
2 | G29A U56G | 0.00237 ± 0.00067 s⁻¹ | – | 1720 ± 760 µM | 6.78e-05 ± 1.3e-05 s⁻¹ | 0.000577 ± 9.1e-05 s⁻¹ | 0.00129 ± 0.00021 s⁻¹ | 0.00257 ± 0.00053 s⁻¹
3 | G29U | 0.00859 ± 0.00066 s⁻¹ | 0.000677 ± 5.2e-05 s⁻¹ | 1570 ± 140 µM | 0.000218 ± 3.7e-06 s⁻¹ | 0.00232 ± 8.4e-05 s⁻¹ | 0.01 ± 0.0028 s⁻¹ | 0.00757 ± 0.00024 s⁻¹
4 | G29A | 0.00814 ± 0.00078 s⁻¹ | 0.000639 ± 6.2e-05 s⁻¹ | 1590 ± 200 µM | 0.000207 ± 4.5e-06 s⁻¹ | 0.00201 ± 9.3e-05 s⁻¹ | 0.00558 ± 0.00024 s⁻¹ | 0.00697 ± 0.00023 s⁻¹
5 | G29C | 0.0045 ± 0.0012 s⁻¹ | 0.000212 ± 8.4e-06 s⁻¹ | 2300 ± 720 µM | 8.88e-05 ± 1.6e-06 s⁻¹ | 0.000839 ± 4.1e-05 s⁻¹ | 0.00239 ± 0.0001 s⁻¹ | 0.00377 ± 0.00011 s⁻¹
6 | U30A G41C | 4.61e-05 ± 3.9e-06 s⁻¹ | – | 5270 ± 1100 µM | < 1e-05 s⁻¹ | – | – | –
7 | G29A U31C | 0.000716 ± 0.00016 s⁻¹ | 7.58e-05 ± 2e-05 s⁻¹ | 2070 ± 780 µM | – | 0.000161 ± 3e-05 s⁻¹ | 0.000333 ± 7.1e-05 s⁻¹ | 0.000668 ± 0.00012 s⁻¹
8 | U30A U65A | 0.000636 ± 0.00012 s⁻¹ | 5.83e-05 ± 2e-05 s⁻¹ | 2480 ± 800 µM | – | 0.000114 ± 2.4e-05 s⁻¹ | 0.000384 ± 8.4e-05 s⁻¹ | 0.000495 ± 8.6e-05 s⁻¹
9 | U30G U54G | 0.00551 ± 0.002 s⁻¹ | 0.000615 ± 0.0001 s⁻¹ | – | 0.000203 ± 4.6e-05 s⁻¹ | 0.00144 ± 0.00032 s⁻¹ | 0.00254 ± 0.00053 s⁻¹ | 0.00743 ± 0.0011 s⁻¹
10 | U30A U47C C70G | 4.3e-05 ± 6.7e-06 s⁻¹ | – | – | – | – | 3.41e-05 ± 1.5e-05 s⁻¹ | 3.72e-05 ± 1.7e-05 s⁻¹
11 | G29A G44A | 1.73e-05 ± 3.5e-06 s⁻¹ | – | – | < 1e-05 s⁻¹ | – | – | –
12 | G29C G41C | 1.23e-05 ± 4.8e-07 s⁻¹ | < 1e-05 s⁻¹ | 2750 ± 290 µM | – | < 1e-05 s⁻¹ | – | –
13 | G29U C70A | 6.65e-05 ± 8.1e-06 s⁻¹ | – | – | – | 4.74e-05 ± 7.5e-06 s⁻¹ | 6.79e-05 ± 7.2e-06 s⁻¹ | 5.54e-05 ± 7.6e-06 s⁻¹
14 | G29A C58A | 0.000173 ± 2.2e-06 s⁻¹ | – | 875 ± 32 µM | – | 7.35e-05 ± 1.6e-05 s⁻¹ | 0.000126 ± 2.9e-05 s⁻¹ | 0.00016 ± 3e-05 s⁻¹
15 | U30C U55C | 0.000295 ± 3.2e-05 s⁻¹ | 3.54e-05 ± 9.7e-06 s⁻¹ | 1490 ± 290 µM | – | 8.83e-05 ± 8.8e-06 s⁻¹ | 0.000167 ± 2.4e-05 s⁻¹ | 0.000281 ± 3.9e-05 s⁻¹
16 | U30G U31C | 0.00345 ± 0.00042 s⁻¹ | 0.000238 ± 3.9e-05 s⁻¹ | 2530 ± 520 µM | 4.81e-05 ± 8.9e-06 s⁻¹ | 0.000578 ± 0.00015 s⁻¹ | 0.00207 ± 0.0003 s⁻¹ | 0.00267 ± 0.00025 s⁻¹
17 | U30G C68A | 2.01e-05 ± 5.2e-06 s⁻¹ | – | – | – | – | – | –
18 | G29C A64G | 0.00121 ± 0.00056 s⁻¹ | 0.000126 ± 2.9e-05 s⁻¹ | – | 3.98e-05 ± 1.1e-05 s⁻¹ | 0.000339 ± 5.2e-05 s⁻¹ | 0.000495 ± 0.00014 s⁻¹ | 0.00181 ± 0.00034 s⁻¹
19 | U30G U56G | 0.00526 ± 0.0018 s⁻¹ | – | – | 0.000182 ± 3.7e-05 s⁻¹ | 0.00189 ± 0.00062 s⁻¹ | 0.00266 ± 0.00073 s⁻¹ | 0.00705 ± 0.0016 s⁻¹
20 | U30C A36C | < 1e-05 s⁻¹ | – | – | < 1e-05 s⁻¹ | – | < 1e-05 s⁻¹ | < 1e-05 s⁻¹
21 | G29U C67G | 0.000311 ± 6.2e-05 s⁻¹ | 2.38e-05 ± 1e-05 s⁻¹ | 3390 ± 1100 µM | – | 5.43e-05 ± 5.8e-06 s⁻¹ | 0.000111 ± 1.3e-05 s⁻¹ | 0.000251 ± 2.4e-05 s⁻¹
22 | U30C U46A | 1.46e-05 ± 6.8e-06 s⁻¹ | – | – | < 1e-05 s⁻¹ | – | – | –
23 | U30G C70A | 6.7e-05 ± 4.4e-06 s⁻¹ | – | 410 ± 130 µM | – | 3.81e-05 ± 9.7e-06 s⁻¹ | 6.45e-05 ± 9.7e-06 s⁻¹ | 6.09e-05 ± 8.7e-06 s⁻¹
24 | U30A U31G | 0.0198 ± 0.0021 s⁻¹ | 0.00148 ± 0.00031 s⁻¹ | 2040 ± 290 µM | 0.000379 ± 4.9e-05 s⁻¹ | 0.00508 ± 0.0011 s⁻¹ | 0.00933 ± 0.0019 s⁻¹ | 0.0178 ± 0.003 s⁻¹
25 | G29C G40U | 0.000193 ± 6.2e-06 s⁻¹ | – | 1880 ± 150 µM | – | 5.1e-05 ± 8.7e-06 s⁻¹ | 0.000106 ± 1.3e-05 s⁻¹ | 0.000165 ± 1.5e-05 s⁻¹
26 | G29C C50U | < 1e-05 s⁻¹ | < 1e-05 s⁻¹ | – | – | – | – | –
27 | G29A C71A | 0.000446 ± 4.4e-05 s⁻¹ | – | 592 ± 140 µM | – | 0.000233 ± 4e-05 s⁻¹ | 0.000344 ± 0.0001 s⁻¹ | 0.000437 ± 0.00014 s⁻¹
28 | G29U G38U U69G | 7.45e-05 ± 3.4e-05 s⁻¹ | 9.11e-05 ± 1.8e-05 s⁻¹ | – | – | 0.00014 ± 6.1e-05 s⁻¹ | 0.000102 ± 4.6e-05 s⁻¹ | –
29 | U30C U31G | 0.00836 ± 0.0018 s⁻¹ | 0.000404 ± 0.0001 s⁻¹ | 2370 ± 690 µM | 0.000147 ± 1.9e-05 s⁻¹ | 0.00249 ± 0.00044 s⁻¹ | 0.00353 ± 0.0008 s⁻¹ | 0.00701 ± 0.00093 s⁻¹
30 | U30A A52G | 0.00117 ± 0.00025 s⁻¹ | 4.07e-05 ± 1.7e-05 s⁻¹ | 5730 ± 1500 µM | – | 0.000114 ± 1.2e-05 s⁻¹ | 0.00054 ± 0.00022 s⁻¹ | 0.000737 ± 0.00012 s⁻¹
